This note sets out measurements from PMC7293044.

For the data set, the target named is T1, Edc3 (UniProt P39998 1-551).
T1 sequence: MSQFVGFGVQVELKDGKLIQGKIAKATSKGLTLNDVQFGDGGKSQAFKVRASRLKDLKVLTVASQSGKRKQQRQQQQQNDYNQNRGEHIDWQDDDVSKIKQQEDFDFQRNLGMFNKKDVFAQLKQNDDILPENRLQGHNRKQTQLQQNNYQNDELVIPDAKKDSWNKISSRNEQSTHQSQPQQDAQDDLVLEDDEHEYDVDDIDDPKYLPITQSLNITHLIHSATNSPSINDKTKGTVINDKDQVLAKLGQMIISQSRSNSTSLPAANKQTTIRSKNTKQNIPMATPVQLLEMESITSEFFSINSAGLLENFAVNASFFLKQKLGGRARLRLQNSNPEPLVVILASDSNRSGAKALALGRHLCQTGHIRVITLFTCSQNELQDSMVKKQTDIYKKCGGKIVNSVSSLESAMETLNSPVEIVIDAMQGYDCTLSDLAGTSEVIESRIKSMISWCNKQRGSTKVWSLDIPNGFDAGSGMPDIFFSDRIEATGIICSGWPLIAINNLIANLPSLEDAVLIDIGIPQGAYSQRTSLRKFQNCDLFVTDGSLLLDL
The experiment in a line: EMSA.

B1: RPS28B 3'UTR stem-loop 60mer (WT) (structured_RNA)
RNA: AUUUUUCAAAAAAUGAAUUAAAUGAUUGAAGUCACUUAAUUUUUGUGGUUUUUUGGAGGU
For orientation: Kd means a measure of binding affinity in units of concentration. Lower therefore signals tighter binding. The molecule B1 showed a Kd of 2550 nM.
